Patent US12534534 (F STAR BETA, dated 2026)
Residue numbers refer to the chain shown, from its start. Names may count otherwise.

T1: cCD137-mFc-Avi (cynomolgus, Homodimer through the mouse Fc (one chain given). In the biotinylated version one biotin sits on the Avi-tag lysine of each monomer.)
T1 construct: dimer; biotinylated version used on streptavidin plates; also called cyno CD137-mFc-Avi; cyno CD137-mFc
T1 chain: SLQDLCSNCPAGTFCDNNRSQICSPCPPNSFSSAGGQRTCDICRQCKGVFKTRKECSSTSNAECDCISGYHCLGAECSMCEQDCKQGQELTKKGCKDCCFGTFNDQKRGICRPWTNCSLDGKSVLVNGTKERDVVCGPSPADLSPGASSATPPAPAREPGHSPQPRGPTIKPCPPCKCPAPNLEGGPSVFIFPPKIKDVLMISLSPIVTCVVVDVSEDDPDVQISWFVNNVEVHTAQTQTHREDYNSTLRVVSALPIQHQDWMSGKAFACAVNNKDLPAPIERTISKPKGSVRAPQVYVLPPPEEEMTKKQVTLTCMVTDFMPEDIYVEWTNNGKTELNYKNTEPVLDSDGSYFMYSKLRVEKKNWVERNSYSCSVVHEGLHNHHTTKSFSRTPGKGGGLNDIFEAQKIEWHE

B1: FS20-22-49AA/FS30-10-3 (bispecific antibody, human IgG1, kappa, L234A L235A, V domains shown)
VH: EVQLLESGGGLVQPGGSLRLSCAASGFTFSSYDMSWVRQAPGKGLEWVSDIDPTGSKTDYADSVKGRFTISRDNSKNTLYLQMNSLRAEDTAVYYCARDLNVYGFDYWGQGTLVTVSS
VL: EIVLTQSPGTLSLSPGERATLSCRASQSVSSSYLAWYQQKPGQAPRLLIYGASSRATGIPDRFSGSGSGTDFTLTISRLEPEDFAVYYCQQSYSYPVTFGQGTKVEIKR
notes: M97 (Kabat) to N against FS30-10; also called FS30-10-3 in mAb^2 format
B2: FS20-22-49AA/FS30-10-16 (bispecific antibody, human IgG1, kappa, L234A L235A, V domains shown)
VH: B1 VH with N101L
VL: B1 VL
notes: M97 (Kabat) to L against FS30-10; also called FS30-10-16 in mAb^2 format
B3: FS20-22-49AA/FS30-10-12 (bispecific antibody, human IgG1, kappa, L234A L235A, V domains shown)
VH: B1 VH with N101T
VL: B1 VL
notes: M97 (Kabat) to T against FS30-10; also called FS30-10-12 in mAb^2 format
B4: FS20-22-49AA/FS30-5-37 (bispecific antibody, human IgG1, kappa, L234A L235A, V domains shown)
VH: EVQLLESGGGLVQPGGSLRLNCAASGFTFSSYAMSWVRQAPGKGLEWVSAISGSGGSTYYADSVKGRFTISRDNSKNTLYLQMNSLRAEDTAVYYCARSYDKYWGSSIYSGLDYWGQGTLVTVSS
VL: EIVLTQSPGTLSLSPGERATLSCRASQSVSSSYLAWYQQKPGQAPRLLIYGASSRATGIPDRFSGSGSGTDFTLTISRLEPEDFAVYYCQQYYSYYPVTFGQGTKVEIKR
notes: M100D to I and M100H to L against FS30-5; also called FS30-5-37 in mAb^2 format
B5: FS20-22-49AA/FS30-35-14 (bispecific antibody, human IgG1, kappa, L234A L235A, V domains shown)
VH: EVQLLESGGGLVQPGGSLRLSCAASGFTFSAYNIHWVRQAPGKGLEWVSDISPYGGATNYADSVKGRFTISRDNSKNTLYLQMNSLRAEDTAVYYCARNLYELSAYSYGADYWGQGTLVTVSS
VL: B4 VL with S94Y, Y95S, Y96S, V98I
notes: M100F (Kabat) to A against FS30-35; also called FS30-35-14 in mAb^2 format

Molecular target: T2, hCD137-mFc-Avi (human, UniProt Q07011 24-186)
T2 construct: dimer; also called human CD137-mFc-Avi; human CD137-mFc
Assay: SPR (Biacore 3000), mAb^2 captured by anti-human Fc, dimeric CD137-mFc as analyte, 1:1 model with mass transfer
Protocol: (§1) Briefly, 25 µg/ml anti-human IgG (Fc) antibody (GE Healthcare, Human Antibody Capture Kit, BR100839) was coated on flow cells 1, 2, 3 and 4 of a Biacore sensor chip CM5 (GE Healthcare, BR100012) for 3 minutes at 5 µl/min, achieving a final response of approximately 4300 RU. The mAb² clones, diluted in HBS-EP buffer (GE Healthcare, BR100188) at 0.5 µg/ml, were injected individually on flows cell 2, 3 and 4 at 30 µl/min to achieve a response of approximately 80 RU. […] Regeneration was achieved by injecting 3 M magnesium chloride (GE Healthcare, Human Antibody Capture Kit, BR100839) for 30 seconds at a rate of 30 µl/min. […] These slightly less stringent conditions were used to assess whether this molecule could bind to cyno CD137-mFc. Subtracted data (flow cell 2-flow cell 1, flow cell 3-flow cell 1, or flow cell 4-flow cell 1) were analysed using BIAevaluation 3.2 Software (GE Healthcare) to identify binding using the model 1:1 binding with mass transfer, with refractive index (RI) constant 0.

Binder	Kd
B1	0.19 nM
B2	0.17 nM
B3	6.31 nM
B4	3.45 nM
B5	0.6 nM

Molecular target: T1, cCD137-mFc-Avi
Assay: as above
Protocol: as §1

Binder	Kd
B1	0.22 nM
B2	0.15 nM
B3	4.63 nM
B4	3 nM
B5	0.67 nM

Molecular target: human CD137 on DO11.10-hCD137 cells (human, UniProt Q07011 24-255)
Assay: cell-based or functional assay

Binder	DO11.10-hCD137 T cell activation assay EC50 (nM), crosslinked
B1	4.8 nM
B2	3.7 nM
B3	4.5 nM
B5	6.3 nM

Molecular target: T2, hCD137-mFc-Avi
Assay: ELISA, hCD137-mFc-Avi coated, 100 nM antibody, competitor CD137L-His; normalised to G1/11D4 = 0 and G1/MOR7480.1 = 100; mean of n=2
Protocol: The following day, plates were washed with PBST (PBS+0.05% Tween20™) and blocked with PBS+1% BSA (Sigma, A3059-500G) for 1 hour at room temperature with agitation. After blocking, the plates were washed again with PBST. A 100 nM dilution of each test antibody was prepared in PBS+1% BSA and added to the CD137-coated plates and incubated for 1 hour at room temperature with agitation. […] The plates were then washed with PBST and then incubated with anti-his secondary antibody (R&D Systems, MAB050H) at a 1 in 1000 dilution in PBS for 1 hour at room temperature with agitation. The plates were then washed with PBST and incubated with TMB detection reagent (Thermo Fisher Scientific, 002023) until the positive control wells turned blue and then the reaction was stopped with the addition of 2N H_2SO_4. Plates were read at 450 nm using the plate reader with Gen5 Software, BioTek. Absorbance values of 630 nm were subtracted from those of 450 nm (Correction). The subtracted absorbance values were plotted vs the log concentration of antibody and the resulting curves were fitted using the log (inhibitor) vs response equation in GraphPad Prism.

Binder	% CD137 ligand blocking activity
B1	49.4%
B2	48.1%
B3	53.8%
B4	107%
B5	6.6%

Molecular target: T2, hCD137-mFc-Avi
Assay: SPR (Biacore 3000), against the positive control G1/MOR7480.1
Protocol: as §1

Binder	fold higher binding affinity than G1/MOR7480.1
B1	~3 fold
B2	~3 fold
